Assay: soluble on expression in E. coli; label from the status in PepcDB or PDB records

Sequence	soluble on expression in E. coli
MGSDKIHHHHHHMSSFAEFSRLALTLEPWRQHIVFVGGWAFRLYGYEPRAYTADHKPIFTQDADVAYDKRELIEGDIKTALEGAGFTEQPNLAGGFRPPAMRYNLDGDENGFYAEFLTPLTGSGKKRDGKGGLKEDATERYAGIVAQKLRFLEVLLFKPWLVTIPKEESGLDEAVADLRVPNPVSFMIQKLLIRDRREGKKRAQDVLYIHGTLQIFYGVVENDLVPIWKELEATLHANQRKSVREGVQELFSEMNDVIREAAEIPDDKLDPEAMLQLCREGFEELFGDI	not soluble
MGSDKIHHHHHHMSSLGLIRNLPRSRFVPLVVLHDTDGPVADLFRREGIDFVAAPVLNRLARAAPRNGAAVVNVMRTLPALVRFLRASNASIVHTNDGRTHLIWGLAARVAGAKHLWHHRGDATSFGLRRVAPWLPNRLVAVSKFASPRPGIFSAASKCSVVHSPFDVTKMAGFEREEARNNVLAAIRCAPETKLLGYVGTLVDRKRPILFVEAVAALKRLSPETKVVGLFFGNALNGLDEAAKSRAEALGVADCIHFMGFRYPGEPWIAGLDALLVTAVNEPLGRTLVEAMLLGTPVVAADSGGNPEVVEDGRTGMLVRADDPDEFARACLKLFSDAALRDRIVETARNEVRARFSFERHVHAITSVYEELTGGMAAMQRSARAG	not soluble
MGSDKIHHHHHHMSSSDRYMQRGVSSQKEDVHKAIKSIDKGIYPRAFCKIIPDILGGDPEYCNIMHADGAGTKSSLAYVYWKETGDISVWKGIAQDAVIMNIDDLICVGAVDNILLSSTIGRNKNLIPGEVLAAIINGTEEVLQMLRDNGIGIYSTGGETADVGDLVRTIIVDSTVTCRMKRQDVISNENIKAGNVIVGFASYGQTSYETEYNGGMGSNGLTSARHDVFNNVLASKYPESFDPKVPENLVYSGEMNLTDPYLNVPLDAGKLVLSPTRTYAPLMKEIIHQYKGKLDGVVHCSGGGQTKVLHFTDATTHIIKDNLFDVPPLFQLIQGQSNTPWEEMYKVFNMGHRLEIYTDAAHAEGMIAIAKKFNIEAKIIGRVEAPVAGKRLTITGPQGTEYTYA	not soluble
MGSDKIHHHHHHMSTAVTFFGQHVLNRVSFLRCSKEFIKKSLNHDSTVFIPFIEGEALISPENGDLVQLSNSVKSYKNILSAIVPLYTTLLNTTRSRSDESGINVTFLGLLEGTDSAFNFEWSNISYKGTPYFGLDIRVTESTLFKKVDFEPIFSYPKVTRDHIFKQTNEDASLYSQGKMYLDWLAKYKFCPGCGSPLFPVEAGTKLQCSNENRNVYCNVRDARINNVCFPRTDPTVIIALTNSDYSKCCLARSKKRYGDFVLYSTIAGFMEPSETIEEACIREIWEETGISCKNIDIVRSQPWPYPCSLMIGCLGIVQFNSKNEVINLNHDDELLDAQWFDTTEIIQALDKYAGGYRVPFKNDINLPGSTTIAFQLINHVCENYKNLRKTSSSHL	not soluble
MGSDKIHHHHHHMSTELNTMALSVPQGAGLDGYIQSVNRIPMLTAEKEKALATRLYENSDLDAAKELIMSHLRFVVHVARSYSGYGLPQADLIQEGNIGLMKAVKRFDPSVGVRLVSFAVHWIKAEIHEYVLRNWRVVKVATTKAQRKLFFNLRKMKKRLGWFSQKEVETVANELGVSTKEVLEMETRMSAHDQAFELSSDDDDSKEGSAYSPAMYLEDKRSDLAAEIEAKDYENHTQQKLLGAMSHLDERSQDIVQSRWLSEDKTTLHDLAEKYEVSAERVRQLEQNAMKKLRLAMS	not soluble
MGSDKIHHHHHHMSTIEERIKEIEDEIKRTQYNKATEHHIGLLKAKIARLQMEARAHKGGGHYGFSIPKSGDATVALVGFPNVGKSSLLNVLTNSESEVGSYAFTTLKAIPGVMEYKGAEIQILDLPGIIENASYGAGRGREILSTVRSADLIVIVTDVETGGLDKIVKELYNSGIVVNRRRKNIEIKKTTSGGIRVHKPKNVDIDSEYIRQLMKEFKLVNADVYIREQVNEDDIIEAVQKNYVYIPSIVAVNKIDMNGAFDTSPLTRFGEVFKVSAKNRIGIDELREGIYRSLKLLRVYLRNKAGVVDFDKPLILTDGSTVRDVCRKINRSLIDSFRYAIISGKNRPIGEQRVGIDYPLLDEDIVTIISRN	not soluble
MGSDKIHHHHHHMSVMFDPDTAIYPFPPKPTPLSIDEKAYYREKIKRLLKERNAVMVAHYYTDPEIQQLAEETGGCISDSLEMARFGAKHPASTLLVAGVRFMGETAKILSPEKTILMPTLQAECSLDLGCPVEEFNAFCDAHPDRTVVVYANTSAAVKARADWVVTSSIAVELIDHLDSLGEKIIWAPDKHLGRYVQKQTGGDILCWQGACIVHDEFKTQALTRLQEEYPDAAILVHPESPQAIVDMADAVGSTSQLIAAAKTLPHQRLIVATDRGIFYKMQQAVPDKELLEAPTAGEGATCRSCAHCPWMAMNGLQAIAEALEQEGSNHEVHVDERLRERALVPLNRMLDFAATLRG	not soluble
MGSDKIHHHHHHMSWNSFGNFMSARSSALAEFGNMVANLVSAKNEKDISKRNEYYKQAGYSALLAFGNLASNIAPGSTSSHIVNGTNASVIASRLSGNISSAIQEHKDGKVNINRFQNILADLYSLGGLGSTLIEKNGNMQSWGIPLAIAGDIIAATAIATGDTGTISTEEFYNFDNWKGFGYELFEDWSRWVYDWLPDGWNLWKELDRNRCWILTERDGRRQFKWLGKPDPTRGWFDNGHECLKPWGNIFDSYRRGKYHVYDPLALDLDGDGIETVATKGFSGALFDHRNQGIRTATGWVSADDGLLVRDLNGNGIIDNGAELFGDNTKLADGSFAKHGYAALAELDSNGDNIINAADAAF	not soluble
MGSDKIHHHHHHMSWSSAIFTGAVVHQRHRPKKHSLRYQVFCLLVDLDELPAIDKSLWLLGYNRRAILRIDDRDHGLGIPGGLKAWVANHVERAGLNTEGMKVSMLCYPRMFGYVFNPLTLYYCYGPSGTLLALLYEVENTFHERHTYVIPASVEEDGAIRHACAKQMYVSPFMPMECLYRFKIVPPGETVTVAINEADEQGPLLYASFCGKRRTLDDRALAKVLVRYPLMTLKVMGAIHWEALKLWVKGVPLHRHRKAQNPIASSIIPPEAANARSPS	not soluble
MGSDKIHHHHHHMSYSAKVLWGEGLFLRPQHFQRQDAYHEARLFESIQAIQPYNWGVRSVRFDRDALGSNVLRASELSLVFPDGALYSAPQADELPPPIALDTLPEGINEFTFYLALHPLRETGSNYADDRDAGFVSRFVSEQASVADHFTDAAEADITFLKTNVKLIAHSEPRDQLLSIPLVRVRRTATSGFEIDDGFVPPCLAIEASPILHQRLRQLIDALQAKVNALYGFHREPTKNIIEFRSGDIASFWLLHTASAAFAALAHLHQHSALHPERLFQELLRLAGQLMTFSKGYVLADLPAYRHDDPGPGFARLDSILRELLETVISTRYFAITLEEVRPSFHVGRLDSGKIDDKTAFYLAVSADMPSVELVDAVPARFKVGAPDDVDKLVLSAMPGVRLAYTPQVPPAIPVRPGACYFALDARSPLYERMLQAQSAMIYAPSGINDLKFELIAVTS	not soluble
MGSDKIHHHHHHMTALDKTGLKILNFQQLLNQLTAKTQELFGDDVNTDQNSALGMYIRVISWLQNIVNQDLEAVYYSSFVDQAEGVSLDRLGSNYSVTRNPAQAATVMLDFTGTTGTVIPEETVYTTESGVEFEMVDTVTLDDSGKGSGEAVCTALDETGNVAPNTISVQGENIAGIESVTNPTQASGGTEIETDDAYRQRIHLSMESQPGPTYYGLYTGLYALPGVEQVQIVPNLTMETDSYGNPPKSLHFYVRGGREDDVAQAILDNIAAGIQTVGKIKEAVKDIGGHTHDVFFDTATVVPIYVNMSLKTSDDFNSETSPVEIVQAIKDYLSGLIMGDKVVFTKLYQAIYNISGVEYAQVTLGRDKSAMGMADIQLDQFETAVVANDSDVEVTVDDG	not soluble
MGSDKIHHHHHHMTALSSVDFCLPEHITPEIFLRDYWQKKPLVIRNGLPEIVGQFEPQDIIELAQNEDVTARLVKTFSDDDWKVFFSPLSEKDFQKLPEKWSVLVQNLEQWSPELGQLWNKFGFIPQWQRDDIMVSYAPKGGSVGKHYDEYDVFLVQGYGHRRWQVGKWCDASTEFKPNQSIRIFDDMGELVIDEVMNPGDILYIPARMAHYGVAEDDCLTFSFGLRYPNLSNLIDGISKGFCHQDPDLNLSEFDLPLRLSQSEQRTGKLADENIQAMKQLLLDKLAHSEAFDTLFKQAVASAVSSRRYELLVSDEMCDPDEVRSILEEDGAFLSQDNNCKLLYTENPLRIYANGEWLDELNIIESEVLKRLSDGESLDWAFLSDLANKTEDPETSMDLLLDSICNWVDDGWALIE	not soluble
MGSDKIHHHHHHMTAPKIIDMQALRIFLAAAKDQNMSIAASKLGLTQSAVSQAIGQLEEQFGIKLLDRNRRPLTLTSAGYVLYERGEQLVSAALNLKGAVLEAGHGVRPAIRLGLVDSVATTCGTSIIKQLMPRVAQLKLQTGLSFDVGAALIDRRVDLAITSEPMHRENGLVRYRVLTEQFVVIFSPGLEVADRENTNLALLSAQLPMIRYRSQSHLGRQAETVLRRADLEIPQFLEVDTADTLTSMVAGGLGWALTTPLCLLQAQEHAKRVGIGFLQSSGDSRSIYLLARGGKFDSLIKDTFDITVSVLKEECLARLAYIHPSLDRHAMMGEWPGIAGHSKTTGARRQPDISSEGIE	not soluble
MGSDKIHHHHHHMTDKGKNDLTSKAKDKARGNPEKPPYWFEIIVSDPQKRTGDPGSSSGYVSYQISTKTNNTSFYDNRGDPESIIVVHRRYSDLLLLHDILLNRFPTCIIPPLPDKKVFQYIAGDRFSQRFTQKRCHSLQNFLRRVSLHPDLSQSKVFKTFLVSKDWESHRKVLQDSLQPNKDEVTDAFMNAFKTVHKQNEEFTEIREKSDKLDRTVTKIDKLFHKVVKKNDSMSEDYTKLGSNLQELQELVTGENEELAAKLKIFNEGVTQLSYGLQDLTKYLDYEYIVDLKDLEHYIDSMRQLIKLKDQKQIDYEELSDYLTRSIKEKNNLISGYGGSNFFANKLEELAGINQEASRREKINKLEGKITSLTGELENAKKVADGFEQECLKEIDHFESVKTAEIKKSLGSLADHHIEFYERILEAWEKVDDSL	not soluble
MGSDKIHHHHHHMTEATKTDFSKLNVYQKLAYVRQKAPYIQKSKRGQQYSYVGSSDVLSALNTVINQVGLILKPEIVAHQVRESQDEVWKADKVKKEPVAKKRTTYFTELELMMTWINIHNPSEIVACSWYSQGVDIEGEKGVGKALTYAEKYFLLKFFNIATDDDDPDKYQKEQLKNTTITERQIDMLNASISRVAELAGQEFEAVKSLAINDSDLNPKKAFEEYSAYDYGVISKLLAKWINFYESRQKVQEDKK	not soluble
MGSDKIHHHHHHMTEKKIILADEPLKSPDQDKLGFAPFAKRIATVIQSVQLRESIVFAVYGKWGSGKTTFINFLTSYLNHDSSITIVKFDPWWFSEKEDLIRQFLSNLQFTLNKSTKFKDIAKMLKPYIETLGEIPKFGWIFKIASRFKKNLQKSVIETKEEIINRLKEKDGKIVVIIDDIDRLTAKEIRELFTIVKAIADFPNTVYILAFDKDIVIRALEKVQEGKGEDYLEKIIQIPIELPLADKTSIRKMLFEELDAVLSGTSNELFDSTYWRNVYWDGIDPFINTVRNVKRLINTIRVTYPSVKNEVNAVDFIAIETLRVFCPEVYSIVKDYPDMFCGYSGEIYDVSRRHIEFLKQFHQNWLSRLNFPDDLKENIKNLLKRLFPKFESVFENIYYGPDWEREWRKKYRICCKEIFPRFFIFSVPSDDLSKHEMDFILSSLHNKEALIEHLKRLATQIRSDGSTRLSIFLERMEDYASEISQDYIPVVIEVFFTIGDKLIIPEDENKSFLIPWGNDIRMERIIWRLLRRYDNNSKRFEVLKNAFKNGQALFMMVNVLILFWQQHRKYRDAKESDAILLDENHLKTLQEIVLDKIRKAVEEGSLLNTPSLPVILHQWREWANEDEVKEWVKEIVFSDEKLPIFLTKFLQKTVSWTETSRATNIYWQIDLNWLKDFINLDFLEKRCNEILSNDSIIGTLEDKQKLAIRLFLNEKTKSLDSSTEEQGKDG	not soluble
